Measurements reported in paper PMC10397247.

How the values were obtained:
P4 = target: T1, P4; experiment: two-hybrid library CCmax;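 further: natural log of median RNA to DNA barcode read ratio; higher means stronger binding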
T1 chain: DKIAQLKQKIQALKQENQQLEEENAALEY

P4SN = target: T2, P4SN; experiment: two-hybrid library CCmax; conditions: mean of both orientations;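 further: natural log of median RNA to DNA barcode read ratio; higher means stronger binding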
T2 chain: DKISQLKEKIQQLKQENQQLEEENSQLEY

4H2143-bA = target: T3, 4H2143-bA; experiment: two-hybrid library CCNG1;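 further: natural log of median RNA to DNA barcode read ratio; higher means stronger binding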
T3 chain: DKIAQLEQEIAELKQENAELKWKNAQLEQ

4H2162-bA = target: T4, 4H2162-bA; experiment: two-hybrid library CCNG1;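 further: natural log of median RNA to DNA barcode read ratio; higher means stronger binding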
T4 chain: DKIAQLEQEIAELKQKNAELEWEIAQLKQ

4H2223-bA = target: T5, 4H2223-bA; experiment: two-hybrid library CCNG1
T5 chain: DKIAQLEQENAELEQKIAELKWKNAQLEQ

4H2233-bA = target: T6, 4H2233-bA; experiment: two-hybrid library CCNG1
T6 chain: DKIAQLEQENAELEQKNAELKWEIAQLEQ

4H2253-bA = target: T7, 4H2253-bA; experiment: two-hybrid library CCNG1
T7 chain: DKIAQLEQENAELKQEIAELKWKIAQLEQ

4H235-bA = target: T8, 4H235-bA; experiment: two-hybrid library CCNG1
T8 chain: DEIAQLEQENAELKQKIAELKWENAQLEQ

4H2438-bA = target: T9, 4H2438-bA; experiment: two-hybrid library CCNG1
T9 chain: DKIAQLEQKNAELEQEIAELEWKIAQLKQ

4H2444-bA = target: T10, 4H2444-bA; experiment: two-hybrid library CCNG1
T10 chain: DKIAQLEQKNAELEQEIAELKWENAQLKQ

4H2473-bA = target: T11, 4H2473-bA; experiment: two-hybrid library CCNG1
T11 chain: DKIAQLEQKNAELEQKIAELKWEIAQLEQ

4H2503-bA = target: T12, 4H2503-bA; experiment: two-hybrid library CCNG1
T12 chain: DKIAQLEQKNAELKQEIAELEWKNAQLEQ

4H2518-bA = target: T13, 4H2518-bA; experiment: two-hybrid library CCNG1
T13 chain: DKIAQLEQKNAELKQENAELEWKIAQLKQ

4H2585-bA = target: T14, 4H2585-bA; experiment: two-hybrid library CCNG1
T14 chain: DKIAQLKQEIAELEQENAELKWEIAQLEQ

4H2588-bA = target: T15, 4H2588-bA; experiment: two-hybrid library CCNG1
T15 chain: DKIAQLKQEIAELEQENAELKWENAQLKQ

4H264-bA = target: T16, 4H264-bA; experiment: two-hybrid library CCNG1
T16 chain: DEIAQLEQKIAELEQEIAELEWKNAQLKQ

4H2692-bA = target: T17, 4H2692-bA; experiment: two-hybrid library CCNG1
T17 chain: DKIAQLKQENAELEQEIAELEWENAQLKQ

4H2717-bA = target: T18, 4H2717-bA; experiment: two-hybrid library CCNG1
T18 chain: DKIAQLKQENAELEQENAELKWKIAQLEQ

4H2760-bA = target: T19, 4H2760-bA; experiment: two-hybrid library CCNG1
T19 chain: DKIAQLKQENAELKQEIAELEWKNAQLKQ

4H2839-bA = target: T20, 4H2839-bA; experiment: two-hybrid library CCNG1
T20 chain: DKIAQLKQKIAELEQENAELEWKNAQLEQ

4H2859-bA = target: T21, 4H2859-bA; experiment: two-hybrid library CCNG1
T21 chain: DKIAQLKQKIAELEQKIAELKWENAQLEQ

4H2915-bA = target: T22, 4H2915-bA; experiment: two-hybrid library CCNG1
T22 chain: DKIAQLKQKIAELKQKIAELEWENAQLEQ

4H2931-bA = target: T23, 4H2931-bA; experiment: two-hybrid library CCNG1
T23 chain: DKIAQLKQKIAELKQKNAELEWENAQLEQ

4H3041-bA = target: T24, 4H3041-bA; experiment: two-hybrid library CCNG1
T24 chain: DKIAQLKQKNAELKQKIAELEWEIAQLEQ

4H3057-bA = target: T25, 4H3057-bA; experiment: two-hybrid library CCNG1
T25 chain: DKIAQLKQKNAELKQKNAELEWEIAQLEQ

4H319-bA = target: T26, 4H319-bA; experiment: two-hybrid library CCNG1
T26 chain: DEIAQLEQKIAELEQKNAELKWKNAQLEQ

4H3277-bA = target: T27, 4H3277-bA; experiment: two-hybrid library CCNG1
T27 chain: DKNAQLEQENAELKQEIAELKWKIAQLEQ

4H3297-bA = target: T28, 4H3297-bA; experiment: two-hybrid library CCNG1
T28 chain: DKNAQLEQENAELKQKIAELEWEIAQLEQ

4H3364-bA = target: T29, 4H3364-bA; experiment: two-hybrid library CCNG1
T29 chain: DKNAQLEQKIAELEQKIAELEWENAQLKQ

4H3381-bA = target: T30, 4H3381-bA; experiment: two-hybrid library CCNG1
T30 chain: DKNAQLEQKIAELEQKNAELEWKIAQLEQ

4H348-bA = target: T31, 4H348-bA; experiment: two-hybrid library CCNG1
T31 chain: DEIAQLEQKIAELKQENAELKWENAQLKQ

4H349-bA = target: T32, 4H349-bA; experiment: two-hybrid library CCNG1
T32 chain: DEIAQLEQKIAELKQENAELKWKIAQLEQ

4H40-bA = target: T33, 4H40-bA; experiment: two-hybrid library CCNG1
T33 chain: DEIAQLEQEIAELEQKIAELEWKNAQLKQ

4H477-bA = target: T34, 4H477-bA; experiment: two-hybrid library CCNG1
T34 chain: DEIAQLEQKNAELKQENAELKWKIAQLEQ

4H492-bA = target: T35, 4H492-bA; experiment: two-hybrid library CCNG1
T35 chain: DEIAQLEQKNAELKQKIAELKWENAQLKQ

4H56-bA = target: T36, 4H56-bA; experiment: two-hybrid library CCNG1
T36 chain: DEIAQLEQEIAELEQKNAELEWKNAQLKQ

4H730-bA = target: T37, 4H730-bA; experiment: two-hybrid library CCNG1
T37 chain: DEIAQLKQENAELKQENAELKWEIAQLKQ

4H741-bA = target: T38, 4H741-bA; experiment: two-hybrid library CCNG1
T38 chain: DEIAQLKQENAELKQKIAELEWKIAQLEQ

4H796-bA = target: T39, 4H796-bA; experiment: two-hybrid library CCNG1
T39 chain: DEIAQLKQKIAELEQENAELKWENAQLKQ

4H883-bH = target: T40, 4H883-bH; experiment: two-hybrid library CCNG1
T40 chain: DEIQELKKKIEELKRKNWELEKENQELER

4H932-bA = target: T41, 4H932-bA; experiment: two-hybrid library CCNG1
T41 chain: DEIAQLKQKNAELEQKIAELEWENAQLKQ

4H949-bA = target: T42, 4H949-bA; experiment: two-hybrid library CCNG1
T42 chain: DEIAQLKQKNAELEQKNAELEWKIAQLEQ

O3-bA = target: T43, O3-bA; experiment: two-hybrid library CCNG1
T43 chain: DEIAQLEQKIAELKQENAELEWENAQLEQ

P1A-bH = target: T44, P1A-bH; experiment: two-hybrid library CCNG1
T44 chain: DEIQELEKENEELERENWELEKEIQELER

B1: P3_WRA (peptide)
chain: DEIQQLEEEIAQLEWKNAARKEKNAQLKA
Binder B1 has an interaction score (P4) of -1.51 and an interaction score (P4SN) of -1.65.

B2: 4H2143-bA (peptide)
chain: DKIAQLEQEIAELKQENAELKWKNAQLEQ
In the case of B2, the interaction score (4H2143-bA) is reported as 0.408, the interaction score (4H2162-bA) is reported as -0.188 and the interaction score (4H2223-bA) is reported as -0.911. It also gave an interaction score (4H2233-bA) of -0.508, an interaction score (4H2253-bA) of -0.521 and an interaction score (4H235-bA) of -1.89. It also gave an interaction score (4H2438-bA) of -0.866, an interaction score (4H2444-bA) of -0.654 and an interaction score (4H2473-bA) of -0.712. The interaction score (4H2503-bA) was -0.661, the interaction score (4H2518-bA) was -0.404 and the interaction score (4H2585-bA) was 0.499. The interaction score (4H2588-bA) was 0.968, the interaction score (4H264-bA) was -1.37 and the interaction score (4H2692-bA) was -0.33. For the same binder, the interaction score (4H2717-bA) was 0.447, the interaction score (4H2760-bA) was -0.549 and the interaction score (4H2839-bA) was 0.951. It also gave an interaction score (4H2859-bA) of 0.213, an interaction score (4H2915-bA) of 0.145 and an interaction score (4H2931-bA) of 0.604. The interaction score (4H3041-bA) was 0.0855, the interaction score (4H3057-bA) was -0.0999 and the interaction score (4H319-bA) was -1.13. The interaction score (4H3277-bA) was -0.971, the interaction score (4H3297-bA) was -0.562 and the interaction score (4H3364-bA) was -0.25. The interaction score (4H3381-bA) was -0.302, the interaction score (4H348-bA) was -2.35 and the interaction score (4H349-bA) was -0.729. The interaction score (4H40-bA) was -1.53, the interaction score (4H477-bA) was -1.41 and the interaction score (4H492-bA) was -0.554. For the same binder, the interaction score (4H56-bA) was -0.735, the interaction score (4H730-bA) was -0.518 and the interaction score (4H741-bA) was -1.07. It also gave an interaction score (4H796-bA) of -0.0583, an interaction score (4H883-bH) of -0.0863 and an interaction score (4H932-bA) of -0.976. For the same binder, the interaction score (4H949-bA) was -0.273, the interaction score (O3-bA) was 0.533 and the interaction score (P1A-bH) was -0.594.
